Changes are numbered by the printed parent chain. In names and notes the source's numbering stands.
T1: Rab10_(1-175) (human Rab10 G-domain) (human, UniProt P61026 1-175)
T1 construct: Rab10 G-domain, human, residues 1-175
T1 sequence (looked up): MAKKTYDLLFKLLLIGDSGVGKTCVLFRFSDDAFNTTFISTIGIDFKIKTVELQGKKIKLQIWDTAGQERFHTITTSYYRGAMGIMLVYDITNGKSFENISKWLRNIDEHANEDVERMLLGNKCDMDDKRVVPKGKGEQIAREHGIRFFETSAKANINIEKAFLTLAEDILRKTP

T2: Rab8a_(1-176_T72E) (phosphomimetic Rab8a) (human, UniProt P61006 1-176, T72E)
T2 construct: Rab8a G-domain, human, residues 1-176, phosphomimetic switch II mutant; also called Rab8a_(T72E)
T2 sequence (looked up): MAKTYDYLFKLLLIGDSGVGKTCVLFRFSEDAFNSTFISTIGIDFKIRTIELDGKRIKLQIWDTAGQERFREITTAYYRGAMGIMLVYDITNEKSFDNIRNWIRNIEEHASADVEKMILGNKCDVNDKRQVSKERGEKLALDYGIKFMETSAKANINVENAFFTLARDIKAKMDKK

T3: Rab10_(1-175_T73E) (phosphomimetic Rab10) (human, UniProt P61026 1-175, T73E)
T3 construct: Rab10 G-domain, human, residues 1-175, phosphomimetic switch II mutant; also called Rab10_(T73E); 10_(T73E)
T3 sequence (looked up): T1 sequence (looked up) with T73E

B1: Rab8a_(1-176) (human Rab8a G-domain) (domain or fragment, UniProt P61006 1-176, looked up)
chain: T2 sequence (looked up) with E72T
notes: Rab8a G-domain, human, residues 1-176; in the stopped-flow assays to the fluorescent mantGppNHp (non-covalent); also called GppNHp Rab8a_(1-176); Rab8a_(GppNHp); source: preparatively loaded with GppNHp or mantGppNHp
B2: EHBP1 full-length bMERB domain M1116A (domain or fragment)
chain: not shown
notes: EHBP1 full-length bMERB domain, human, residues 1060-1212 as the wild-type construct; numbers on isoform 1 (Q8NDI1-1); also called bMERB_(M1116A); source: E. coli BL21 DE3-RIL, purified
B3: EHBP1 bMERB domain Q1176A (domain or fragment)
chain: not shown
notes: EHBP1 bMERB domain, human, residues 1060-1212 as the wild-type construct; numbers on isoform 1 (Q8NDI1-1); source: E. coli BL21 DE3-RIL, purified
B4: EHBP1 bMERB domain (bMERB_(1060-1212), full-length bMERB domain) (domain or fragment)
chain: not shown
notes: EHBP1 bMERB domain, human, residues 1060-1212, all three predicted helices; PDB 6ZSI and 6ZSJ hold the M1116A and F1120A mutants of the full-length bMERB domain; also called bMERB^EHBP1; full-length construct
B5: EHBP1 full-length bMERB domain F1120A (domain or fragment)
chain: not shown
notes: EHBP1 full-length bMERB domain, human, residues 1060-1212 as the wild-type construct; numbers on isoform 1 (Q8NDI1-1); also called bMERB_(F1120A); source: E. coli BL21 DE3-RIL, purified
B6: EHBP1 bMERB domain lacking the N-terminal helix (helices 2-3) (domain or fragment)
chain: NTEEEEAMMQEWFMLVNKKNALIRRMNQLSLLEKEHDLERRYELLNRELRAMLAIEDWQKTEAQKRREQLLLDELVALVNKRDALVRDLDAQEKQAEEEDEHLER
B7: EHBP1 CH (calponin homology) domain (domain or fragment, human)
chain: GRKPNASQSLLVWCKEVTKNYRGVKITNFTTSWRNGLSFCAILHHFRPDLIDYKSLNPQDIKENNKKAYDGFASIGISRLLEPSDMVLLAIPDKLTVMTYLYQIRAHFSGQ
notes: EHBP1 central CH domain, human; also called CH domain; CH^EHBP1
B8: Cy3 labeled EHBP1 CH domain (domain or fragment, human)
chain: B7 chain
modifications: Cy3 on the N-terminus
notes: EHBP1 central CH domain, human; also called Cy3-CH; source: E. coli BL21 DE3-RIL, purified; labelled with Cy3-thioester
B9: EHBP1 bMERB_(H1-2) (bMERB domain lacking the C-terminal helix) (domain or fragment)
chain: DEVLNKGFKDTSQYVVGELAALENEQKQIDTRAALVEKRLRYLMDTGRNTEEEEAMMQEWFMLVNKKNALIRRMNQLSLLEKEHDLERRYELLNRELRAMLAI
B10: EHBP1 CH domain D532A (domain or fragment, human)
chain: B7 chain with D93A
notes: EHBP1 CH domain, human; numbers on isoform 1 (Q8NDI1-1); source: E. coli BL21 DE3-RIL, purified

How the values were obtained:
Details in all cases: both partners purified
[1] = molecular target: T4, EHBP1 bMERB domain R1189A (human, UniProt Q8NDI1-1 1060-1212, R1189A); assay: ITC; 500 µM GppNHp Rab titrated into 50 µM bMERB domain; 20 mM Hepes 7.5, 50 mM NaCl, 1 mM MgCl2, 1 mM TCEP; 25 °C; one-site-binding model
T4 construct: EHBP1 bMERB domain, human, residues 1060-1212 as the wild-type construct; numbers on isoform 1 (Q8NDI1-1); source: E. coli BL21 DE3-RIL, purified

[2] = molecular target: T5, EHBP1 bMERB domain L1182S (human, UniProt Q8NDI1-1 1060-1212, L1182S); assay: as above
T5 construct: EHBP1 bMERB domain, human, residues 1060-1212 as the wild-type construct; numbers on isoform 1 (Q8NDI1-1); source: E. coli BL21 DE3-RIL, purified

[3] = molecular target: T6, EHBP1 bMERB domain N1187A (human, UniProt Q8NDI1-1 1060-1212, N1187A); assay: as above
T6 construct: EHBP1 bMERB domain, human, residues 1060-1212 as the wild-type construct; numbers on isoform 1 (Q8NDI1-1); source: E. coli BL21 DE3-RIL, purified

[4] = molecular target: T7, EHBP1 bMERB domain L1179S (human, UniProt Q8NDI1-1 1060-1212, L1179S); assay: as above
T7 construct: EHBP1 bMERB domain, human, residues 1060-1212 as the wild-type construct; numbers on isoform 1 (Q8NDI1-1); source: E. coli BL21 DE3-RIL, purified

[5] = molecular target: T8, EHBP1 bMERB domain L1156S (human, UniProt Q8NDI1-1 1060-1212, L1156S); assay: as above
T8 construct: EHBP1 bMERB domain, human, residues 1060-1212 as the wild-type construct; numbers on isoform 1 (Q8NDI1-1); source: E. coli BL21 DE3-RIL, purified

[6] = molecular target: T9, EHBP1 bMERB domain V1186A (human, UniProt Q8NDI1-1 1060-1212, V1186A); assay: as above
T9 construct: EHBP1 bMERB domain, human, residues 1060-1212 as the wild-type construct; numbers on isoform 1 (Q8NDI1-1); source: E. coli BL21 DE3-RIL, purified

[7] = molecular target: B1; assay: crystal structure; sitting-drop vapor diffusion, 20 °C; 300–400 µM 1:1 complexes
[8] = molecular target: B1; assay: ITC; 500 µM GppNHp Rab titrated into 50 µM bMERB domain; 20 mM Hepes 7.5, 50 mM NaCl, 1 mM MgCl2, 1 mM TCEP; 25 °C; one-site-binding model
[9] = molecular target: T1, Rab10_(1-175) (human Rab10 G-domain); assay: as above
[10] = molecular target: T2, Rab8a_(1-176_T72E) (phosphomimetic …); assay: as above
[11] = molecular target: B1; assay: stopped-flow fluorescence kinetics; dissociation: complex of mantGppNHp Rab8a_(1-176) with the bMERB domain (2 µM) mixed with a 20-fold excess of unlabeled GppNHp Rab8a_(1-176); 25 °C
[12] = molecular target: B1; assay: stopped-flow fluorescence kinetics; association: 0.5 µM mantGppNHp Rab8a_(1-176) with 1.5–8 µM bMERB domain, pseudo first order; koff from the y-axis intercept; Rab buffer, 25 °C
[13] = molecular target: T3, Rab10_(1-175_T73E) (phosphomimetic …); assay: SEC; analytical SEC, Superdex 75 10/300 GL; 110 µM bMERB domain mixed with 121 µM GppNHp Rab (1:1.1); 20 mM Hepes 7.5, 50 mM NaCl, 1 mM MgCl2, 2 mM DTE; room temperature
[14] = molecular target: F-actin (rabbit skeletal muscle actin, polymerized) (rabbit, UniProt P68135 1-377); assay: co-sedimentation; 10 µM F-actin with 0–60 µM EHBP1 CH domain, 1 h RT; 5 mM Tris-HCl pH 7.5, 0.18 mM CaCl2, 15 mM KCl, 1 mM DTT, 1.8 mM NaN3; 100,000 g 1 h 4 °C; densitometry of SDS-PAGE
[15] = molecular target: B4; assay: ITC; 600–800 µM CH domain titrated into 40–60 µM bMERB domain; 20 mM Hepes 7.5, 150 mM NaCl, 1 mM TCEP; 25 °C; one-site-binding model
[16] = molecular target: B4; assay: stopped-flow fluorescence kinetics; association: 0.5 µM Cy3 labeled CH domain with 2–16 µM full-length bMERB domain; koff from the y-axis intercept; CH buffer, 25 °C
[17] = molecular target: B4; assay: stopped-flow fluorescence kinetics; dissociation: complex of Cy3 labeled CH with full-length bMERB domain (2 µM) mixed with a 20-fold excess of unlabeled CH domain; CH buffer
[18] = molecular target: B7; assay: ITC; 600–800 µM CH domain titrated into 40–60 µM bMERB domain; 20 mM Hepes 7.5, 150 mM NaCl, 1 mM TCEP; 25 °C; one-site-binding model

T7 sequence (Q8NDI1 1060-1212 L1179S): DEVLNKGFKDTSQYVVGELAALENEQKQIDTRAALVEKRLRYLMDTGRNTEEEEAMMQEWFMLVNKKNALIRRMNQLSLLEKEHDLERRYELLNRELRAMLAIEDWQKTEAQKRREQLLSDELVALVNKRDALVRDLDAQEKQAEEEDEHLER
T8 sequence (Q8NDI1 1060-1212 L1156S): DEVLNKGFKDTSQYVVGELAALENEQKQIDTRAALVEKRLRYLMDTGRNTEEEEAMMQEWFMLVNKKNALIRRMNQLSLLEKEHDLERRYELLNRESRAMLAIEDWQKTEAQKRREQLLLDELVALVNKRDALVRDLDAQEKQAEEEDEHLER
T9 sequence (Q8NDI1 1060-1212 V1186A): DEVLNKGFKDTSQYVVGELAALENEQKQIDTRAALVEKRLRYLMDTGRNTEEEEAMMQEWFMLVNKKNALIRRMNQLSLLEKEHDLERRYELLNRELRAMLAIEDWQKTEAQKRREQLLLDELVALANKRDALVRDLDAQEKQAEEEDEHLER
T6 sequence (Q8NDI1 1060-1212 N1187A): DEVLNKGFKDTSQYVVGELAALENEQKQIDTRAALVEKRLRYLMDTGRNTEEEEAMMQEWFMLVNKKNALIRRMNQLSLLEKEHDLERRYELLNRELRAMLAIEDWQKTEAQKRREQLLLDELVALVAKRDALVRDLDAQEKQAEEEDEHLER
T5 sequence (Q8NDI1 1060-1212 L1182S): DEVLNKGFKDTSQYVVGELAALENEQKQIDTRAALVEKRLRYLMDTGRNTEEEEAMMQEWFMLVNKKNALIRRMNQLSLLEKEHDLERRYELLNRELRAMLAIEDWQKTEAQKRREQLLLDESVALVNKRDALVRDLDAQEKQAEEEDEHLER
T4 sequence (Q8NDI1 1060-1212 R1189A): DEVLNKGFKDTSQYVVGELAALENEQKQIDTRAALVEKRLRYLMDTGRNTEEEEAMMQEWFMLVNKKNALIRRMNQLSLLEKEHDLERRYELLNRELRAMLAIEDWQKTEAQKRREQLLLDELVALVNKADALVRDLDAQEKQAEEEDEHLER

Binder: B1
- fold reduction in binding affinity against the wild-type bMERB domain [1]: 20 fold
- fold decrease in binding affinity against the wild-type bMERB domain [2]: 10 fold
- fold reduction in binding affinity against the wild-type bMERB domain [3]: 5 fold
- fold decrease in binding affinity against the wild-type bMERB domain [4]: 10 fold
- fold reduction in affinity against the wild-type bMERB domain [5]: 47 fold
- fold reduction in binding affinity against the wild-type bMERB domain [6]: > 30 fold

Binder: B2
- binding result [7]: binds

Binder: B3
- binding result [8]: binds

Binder: B4
- Kd [8]: 310 nM
- binding result [9]: binds
- binding result [10]: binds
- koff [11]: 13.8 s⁻¹
- Kd [12]: 480 nM
- koff [12]: 13.4 s⁻¹
- kon [12]: 2.79e+07 M⁻¹ s⁻¹
- binding result [13]: binds

Binder: B5
- binding result [7]: binds

Binder: B6
- Kd [8]: 300 nM

Binder: B7
- Kd [14]: 9340 ± 1860 nM
- Kd [15]: 1200 nM
- stoichiometry N [15]: 1

Binder: B8
- Kd [16]: 3750 to 4230 nM
- koff [16]: 104 s⁻¹
- kon [16]: 2.76e+07 M⁻¹ s⁻¹
- koff [17]: 117 s⁻¹

Binder: B9
- Kd [18]: 780 nM

Binder: B10
- fold reduction in binding affinity against the wild-type CH domain [15]: > 40 fold
